Patent US20260176352A1 (BIRD ROCK BIO, published 2026)
Changes are numbered by the printed parent chain. Values joined by “and” are separate entries in the source; they are usually repeats but may differ in a detail not shown here. Identical values can stand only once.

How the values were obtained:
[1] = target: T1, native full length human CB1 receptor (cannabinoid 1 receptor) (human, UniProt P21554 1-472); test: binding to CB1 cells (FIG. 12); unlabeled P4B5
T1 construct: whole, on cells; also called A156; Native human CB1 TRex CHO A156

[2] = target: T2, A138 iCAPS (CB1 with ICL3 native sequence replaced with protein 1 sequence) (human, UniProt P21554 99-414); test: ELISA, purified IgG on A138 CB1 iCAPS
T2 construct: The insert stands inside the chain in place of ICL3
Protocol: (§1) Purified IgG was tested for binding to purified CB1 receptor (CB1 Conformation Antigen Presenting System (iCAPS)) by ELISA. Non-biotinylated antigens (e.g. empty iCAPS) were coated directly on Maxisorp plates. The primary antibodies were purified IgGs with 1:3 serial dilutions, incubated on the plate for 1 hour. After 3 rounds of washing with PBST, secondary antibodies HRP goat anti-mouse IgG (Abmart) or HRP goat anti-human IgG (Sigma), depending on the species of the IgGs were added and incubated for another hour. The plates were washed three times with PBST, then developed with TMB (Biopanda). HCl was added to the plates to stop the reaction. Absorbance at 450 nm was read on Emax precision microplate reader (Molecular Devices).

[3] = target: T3, A139 iCAPS (CB1 with ICL3 native sequence replaced with BRIL) (human, UniProt P21554 99-414); test: ELISA, purified IgG on A139 CB1 iCAPS
T3 construct: The insert stands inside the chain in place of ICL3
Protocol: as §1

[4] = target: T1, native full length human CB1 receptor …; test: binding to CB1 cells (FIG. 12); labeled with Vivotag 680 XL
[5] = target: T1, native full length human CB1 receptor …; test: flow cytometry, A156 cells; batch 1.01 mg/ml
Protocol: (§2) To further assess TRex CHO parental cells, TRex CHO A56 overexpressed CB1, Native human CB1 TRex CHO A156, 5HT2B, Mouse CB1 and human CB2 were used to examine the specificity of IgG binding. 100 μl of 1×10⁶ cells/ml of cells were incubated with primary antibody IgGs in 3-fold serial dilutions starting from 1 μM to 0.5 nM for 30 minutes on ice. After being washed with 200 μl of FACS buffer twice, cells were incubated with secondary antibody for 30 minutes on ice. Cells were washed with 200 μl of FACS buffer twice and transferred to BD Falcon 5 ml tube and analyzed by FACS.
(§3) For selected binders, full binding curves were generated on CB1 receptor by testing a range of concentrations. Three-fold serial dilutions from 1 μM to 0.1 μM were prepared. Selectivity was determined by measuring binding to cells expressing 5HT2B or CB2, relative to binding to A156 (native human CB1 receptor expressing) or A56 (overexpressed-CB1 receptor with the T210A modification and ICL3 replacement with fusion partner) by flow cytometry. […] PE-conjugated anti-mouse (for detection of anti-CB2) and PE conjugated anti-human antibodies were used to detect CB2 and 5HT2B, respectively.

[6] = target: T4, TRex CHO A56 over-expressed CB1 (CB1 T210A/fusion partner) (UniProt P21554 1-472); test: flow cytometry, A56 cells; batch 1.25 mg/ml
T4 construct: whole, on cells; The fusion partner stands inside the CB1 chain in place of ICL3, not at its end; also called Trex-CHO CB1 T210A/fusion partner; not shown: fusion partner that replaces ICL3
Protocol: as §2, §3

[7] = target: T1, native full length human CB1 receptor …; test: cell-based or functional assay
[8] = target: T1, native full length human CB1 receptor …; test: flow cytometry, TRex-CHO human CB1 cells; mean of batch 1
Protocol: (§4) TRex CHO parental cells, and TRex-CHO cells stably transfected with tetracycline inducible human CB1, human CB2 or mouse CB1 expression constructs were harvested. […] Cells were then centrifuged at 4° C. at 1600 rpm for 3 minutes; supernatant was aspirated and cells were washed with 200 μL FACS buffer. The washing procedure was repeated twice. After the final wash, cells were re-suspended in FACS buffer containing PE-conjugated anti-human Fc secondary antibody (1:200 dilutions) and incubated at 4° C. for 30 minutes. Cells were washed with 200 μL FACS buffer twice and analyzed by flow cytometry (Guava). Data analysis and measurement of binding affinity (KD) was performed using GraphPad Prism software.

[9] = target: T5, human CB2 (human, UniProt P34972 1-360); test: flow cytometry on TRex-CHO human CB2 cells, middle panel
T5 construct: whole, on cells; also called TRexCHO Human CB2
Protocol: (§5) After being washed with 200 μl of FACS buffer twice, cells were incubated with PE conjugated anti-human secondary antibody (Southern Biotech) for 30 minutes on ice. Cells were washed with 200 μl of FACS buffer twice and transferred to BD Falcon 5 ml tube and analyzed by flow cytometry (BD FACScalibur).

[10] = target: T4, TRex CHO A56 over-expressed CB1 (CB1 …); test: flow cytometry, A56 cells; batch 1.01 mg/ml
Protocol: as §2, §3

[11] = target: T1, native full length human CB1 receptor …; test: flow cytometry, TRex-CHO human CB1 cells; mean of batch 3
Protocol: as §4

[12] = target: T1, native full length human CB1 receptor …; test: flow cytometry, A156 cells; batch 0.49 mg/ml
Protocol: as §2, §3

[13] = target: T1, native full length human CB1 receptor …; test: flow cytometry on TRex-CHO cells with tetracycline inducible human CB1
Protocol: as §4

[14] = target: T1, native full length human CB1 receptor …; test: flow cytometry, A156 cells; batch 1.25 mg/ml
Protocol: as §2, §3

[15] = target: T4, TRex CHO A56 over-expressed CB1 (CB1 …); test: flow cytometry, TRexCHO A56 cells
Protocol: as §5

[16] = target: T6, mouse CB1 (mouse, UniProt P47746 1-473); test: flow cytometry on TRex-CHO mouse CB1 cells, lower panel
T6 construct: whole, on cells; also called TRexCHO Mouse CB1
Protocol: as §5

[17] = target: T1, native full length human CB1 receptor …; test: flow cytometry, IgG titrated on cells
Protocol: as §2, §3

[18] = target: 5HT2B (expression cell line) (Homo sapiens (Human), UniProt P41595 1-481); test: flow cytometry, IgG titrated on cells
Protocol: as §2, §3

[19] = target: T4, TRex CHO A56 over-expressed CB1 (CB1 …); test: flow cytometry, IgG titrated on cells
Protocol: as §2, §3

[20] = target: T1, native full length human CB1 receptor …; test: flow cytometry, TRex-CHO human CB1 cells; mean of batch 2
Protocol: as §4

[21] = target: T1, native full length human CB1 receptor …; test: flow cytometry, TRexCHO A156 cells
Protocol: as §5

[22] = target: T1, native full length human CB1 receptor …; test: flow cytometry, A156 cells; batch 1.01 mg/ml; A156 cells; batch 1.01 mg/ml, first of two such rows
Protocol: as §2, §3

[23] = target: T1, native full length human CB1 receptor …; test: flow cytometry, TRex-CHO human CB1 cells; mean ± SD
Protocol: as §4

[24] = target: T1, native full length human CB1 receptor …; test: cell-based or functional assay; remark: listed apart in the source
[25] = target: T1, native full length human CB1 receptor …; test: cell-based or functional assay; remark: listed apart in the source
[26] = target: T1, native full length human CB1 receptor …; test: flow cytometry, A156 cells; batch 5.9 mg/ml
Protocol: as §2, §3

[27] = target: T1, native full length human CB1 receptor …; test: flow cytometry, A156 cells; batch 5.28 mg/ml
Protocol: as §2, §3

[28] = target: T1, native full length human CB1 receptor …; test: flow cytometry, A156 cells; batch 5.78 mg/ml
Protocol: as §2, §3

[29] = target: T4, TRex CHO A56 over-expressed CB1 (CB1 …); test: flow cytometry, A56 cells; batch 4.85 mg/ml
Protocol: as §2, §3

[30] = target: T1, native full length human CB1 receptor …; test: flow cytometry, A156 cells; batch 4.85 mg/ml
Protocol: as §2, §3

[31] = target: T6, mouse CB1; test: flow cytometry on cells expressing the target
[32] = target: T4, TRex CHO A56 over-expressed CB1 (CB1 …); test: flow cytometry, A56 cells; batch 5.78 mg/ml
Protocol: as §2, §3

[33] = target: T5, human CB2; test: flow cytometry, IgG titrated on cells
Protocol: as §2, §3

[34] = target: T4, TRex CHO A56 over-expressed CB1 (CB1 …); test: flow cytometry, A56 cells; batch 5.28 mg/ml
Protocol: as §2, §3

[35] = target: T4, TRex CHO A56 over-expressed CB1 (CB1 …); test: flow cytometry, A56 cells; batch 5.9 mg/ml
Protocol: as §2, §3

Chain of 5HT2B (expression cell line) (P41595 whole entry): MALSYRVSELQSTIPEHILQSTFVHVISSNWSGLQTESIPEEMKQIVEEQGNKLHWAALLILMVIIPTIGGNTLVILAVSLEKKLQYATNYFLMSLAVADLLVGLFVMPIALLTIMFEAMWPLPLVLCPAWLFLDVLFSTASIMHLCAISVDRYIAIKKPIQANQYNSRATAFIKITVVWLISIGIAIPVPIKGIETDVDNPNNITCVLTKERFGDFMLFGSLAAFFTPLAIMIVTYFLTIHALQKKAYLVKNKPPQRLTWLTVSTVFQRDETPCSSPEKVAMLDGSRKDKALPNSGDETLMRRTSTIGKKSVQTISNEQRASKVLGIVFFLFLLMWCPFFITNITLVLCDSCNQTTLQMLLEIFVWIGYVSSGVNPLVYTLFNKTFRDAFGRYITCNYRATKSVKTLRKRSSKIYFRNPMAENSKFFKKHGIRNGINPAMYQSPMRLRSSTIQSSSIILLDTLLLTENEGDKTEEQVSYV
T5 sequence (P34972 whole entry): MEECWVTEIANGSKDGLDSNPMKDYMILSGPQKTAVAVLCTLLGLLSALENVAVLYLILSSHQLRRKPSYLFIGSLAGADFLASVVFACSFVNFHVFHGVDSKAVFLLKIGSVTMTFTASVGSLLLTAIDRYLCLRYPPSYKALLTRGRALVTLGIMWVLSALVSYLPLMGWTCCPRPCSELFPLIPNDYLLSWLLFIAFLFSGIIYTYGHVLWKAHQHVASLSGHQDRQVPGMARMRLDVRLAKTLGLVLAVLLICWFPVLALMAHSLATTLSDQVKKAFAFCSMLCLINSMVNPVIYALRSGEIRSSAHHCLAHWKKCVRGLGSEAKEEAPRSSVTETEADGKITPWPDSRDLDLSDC
T6 sequence (P47746 whole entry): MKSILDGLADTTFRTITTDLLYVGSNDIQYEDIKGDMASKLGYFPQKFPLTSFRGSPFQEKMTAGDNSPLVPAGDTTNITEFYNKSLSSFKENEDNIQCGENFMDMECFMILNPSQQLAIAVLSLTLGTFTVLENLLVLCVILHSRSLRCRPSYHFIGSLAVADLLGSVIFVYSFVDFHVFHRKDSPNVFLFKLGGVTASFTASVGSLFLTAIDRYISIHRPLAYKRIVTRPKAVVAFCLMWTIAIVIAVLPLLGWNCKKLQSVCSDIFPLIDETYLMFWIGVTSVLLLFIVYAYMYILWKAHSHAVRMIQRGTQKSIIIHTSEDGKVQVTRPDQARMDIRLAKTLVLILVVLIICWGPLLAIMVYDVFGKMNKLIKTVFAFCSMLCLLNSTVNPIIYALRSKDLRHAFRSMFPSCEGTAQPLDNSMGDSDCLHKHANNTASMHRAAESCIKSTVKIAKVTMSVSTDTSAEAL

B1: PA2LR3-P4B5 (chimeric) (antibody, human IgG1, kappa, V domains shown)
VH: EVQLQQSGAELVRPGSSVKISCKASGYAFSYYWMNWVKQRPGQGLEWIGQIYPGDGDTNYSGRFKGKATLTADKSSSTAYIQLSSLTSEDSAVYFCARSHGNYFPYWGQGTLVTVSA
VL: DIVLNQSPAIMSASLGERVTMTCTASSSVSSSYLHWYQQKPGSSPKLWIYSTSNLASGVPARFSGSGSGTSYSLTISSMEAEDAATYYCHQYHRSPLTFGAGTKLEIKR
Question: Which results are given for B1?
Answer: EC50 [1]: 0.0605 µM; EC50 [2]: 0.00024 µM; EC50 [3]: 0.00024 µM

B2: P4B5 antibody labeled with Vivotag 680 XL (antibody, human IgG1, kappa, V domains shown)
VH: B1 VH
VL: B1 VL
modifications: Vivotag 680 XL label, site and chain not stated
notes: also called Labeled P4B5
Question: For B2, which EC50 [4] is on record?
Answer: 0.0578 µM

B3: PA13R3-P1C4 (chimeric) IgG (antibody, V domains shown)
VH: B1 VH with S16V, A28E, D57E, N59K, S61N, R63K, S77N, I81M, F104L
VL: B1 VL with N5T, L97P, I107L
notes: Phage-derived mouse variable regions on human constant regions; also called Chimeric P1C4-IgG; PA13R3-P1C4 IgG
Question: For B3, which Kd [5] is on record?
Answer: 0.171 µM

Question: And the Kd [6]?
Answer: 0.0506 µM

Question: What about the “IC50, cAMP functional antagonist assay” value [7] of the same binder?
Answer: 0.09 µM

Question: What about the EC50 [2] of the same binder?
Answer: 0.000172 µM

Question: What about the Kd [8] of the same binder?
Answer: 0.092 µM

Question: Does B3 bind [9]?
Answer: no binding (tested: about 300 nM (last point))

Question: And the Kd [10]?
Answer: 0.0273 µM

Question: What about the Kd [11] of the same binder?
Answer: 0.096 µM

Question: And the Kd [12]?
Answer: 0.187 µM

Question: And the “EC50 (read off the curve)” value [13]?
Answer: ~0.06 µM and ~0.04 µM

Question: And the Kd [14]?
Answer: 0.0726 µM

Question: What about the Kd [15] of the same binder?
Answer: 0.0105 µM

Question: Does B3 bind [16]?
Answer: no binding (tested: about 300 nM (last point))

Question: And the “EC50 (read off the curve)” value [17]?
Answer: ~0.03 µM

Question: Does B3 bind [18]?
Answer: no binding (tested: 1000 nM)

Question: What about the “EC50 (read off the curve)” value [19] of the same binder?
Answer: ~0.02 µM

Question: And the Kd [20]?
Answer: 0.116 µM

Question: And the Kd [21]?
Answer: 0.025 µM

Question: And the EC50 [3]?
Answer: 0.000175 µM

Question: And the Kd [22]?
Answer: 0.0405 µM

Question: What about the Kd [23] of the same binder?
Answer: 0.103 µM

Question: And the “IC50 (nM), cAMP assay” value [24]?
Answer: 93 nM

Question: And the “cAMP IC50 (nM) Mean of Batch 1 [n]” value [25]?
Answer: 120 nM

Question: And the “cAMP IC50 (nM) Mean of Batch 2 [n]” value [25]?
Answer: 155 nM

B4: 36E12B6C2 IgG (hybridoma-derived) (antibody, V domains shown)
VH: QVQLQQSGAELVRPGSSVKISCKASGYEFSYYWMNWVKQRPGQGLQWIGQIYPGDGDTNYNGKFKGKATLTADKSSSTAYMHLTSLTSEDSAVYFCARSGGNPFAFWGQGTLVTVSA
VL: DIQMTQTSSSLSASLGDRVTFSCRASQDISNYLNWYQQKPDGTVKLLIYYTSRLHSGVTSRFRGSGSGTDYSLTISNLEQEDVATYFCQQGHTLPWSFGGGTKLEIKR
Question: With B4 as the binder, how does the Kd [26] read?
Answer: 0.026 µM

Question: What about the Kd [27] of the same binder?
Answer: 0.0277 µM

Question: And the Kd [28]?
Answer: 0.151 µM

Question: What about the Kd [29] of the same binder?
Answer: 0.0293 µM

Question: And the Kd [30]?
Answer: 0.064 µM

Question: Does B4 bind [31]?
Answer: no binding (tested: 1 µM)

Question: What about the Kd [32] of the same binder?
Answer: 0.0694 µM

Question: And the “EC50 (read off the curve)” value [17]?
Answer: ~0.06 µM

Question: Does B4 bind [33]?
Answer: no binding (tested: 1000 nM)

Question: Does B4 bind [18]?
Answer: no binding (tested: 1000 nM)

Question: What about the “EC50 (read off the curve)” value [19] of the same binder?
Answer: ~0.04 µM

Question: What about the Kd [34] of the same binder?
Answer: 0.0519 µM

Question: And the Kd [35]?
Answer: 0.0602 µM
